Source: the supplement of paper PMC10567573

B1: TMEM192 (parent)
chain: LWILHLLLECYIQYHHSKIRNRGY
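Note: lentivirally expressed fusions sorted by FACS into six bins by GFP to DsRed ratio, PSI derived from sequencing read proportions per bin multiplied by bin number.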

Variants of: B1
Assay: protein stability index of a GFP-peptide fusion (GPS, HEK-293T) (PSI 1-6); higher = more stable
Details: c terminus: a fixed tail appended
For LWILCLLLECYIQYHHSKIRNRGY [H5C], the protein stability index was 1.66.
Variant LWILKLLLECYIQYHHSKIRNRGY [H5K] has a protein stability index of 2.35.
In the case of LWILELLLECYIQYHHSKIRNRGY [H5E], the protein stability index is reported as 2.26.
For LWILVLLLECYIQYHHSKIRNRGY [H5V], the protein stability index was 2.22.
In the case of LWILQLLLECYIQYHHSKIRNRGY [H5Q], the protein stability index is reported as 1.72.
Variant LWILTLLLECYIQYHHSKIRNRGY [H5T] has a protein stability index of 2.61.
In the case of LWILPLLLECYIQYHHSKIRNRGY [H5P], the protein stability index is reported as 3.17.
With LWILLLLLECYIQYHHSKIRNRGY [H5L] the protein stability index was 2.28.
With LWILGLLLECYIQYHHSKIRNRGY [H5G] the protein stability index was 1.48.
In the case of LWILILLLECYIQYHHSKIRNRGY [H5I], the protein stability index is reported as 2.77.
For LWILDLLLECYIQYHHSKIRNRGY [H5D], the protein stability index was 1.05.
LWITHLLLECYIQYHHSKIRNRGY [L4T] showed a protein stability index of 1.17.
Variant LWIMHLLLECYIQYHHSKIRNRGY [L4M] has a protein stability index of 2.39.
LWIIHLLLECYIQYHHSKIRNRGY [L4I] gave a protein stability index of 2.29.
In the case of LWIPHLLLECYIQYHHSKIRNRGY [L4P], the protein stability index is reported as 2.85.
LWIVHLLLECYIQYHHSKIRNRGY [L4V] showed a protein stability index of 1.83.
In the case of LWIRHLLLECYIQYHHSKIRNRGY [L4R], the protein stability index is reported as 3.42.
With LWIKHLLLECYIQYHHSKIRNRGY [L4K] the protein stability index was 2.51.
For LWIYHLLLECYIQYHHSKIRNRGY [L4Y], the protein stability index was 2.68.
For LWICHLLLECYIQYHHSKIRNRGY [L4C], the protein stability index was 2.96.
For LWISHLLLECYIQYHHSKIRNRGY [L4S], the protein stability index was 3.7.
Work on LWIAHLLLECYIQYHHSKIRNRGY [L4A] yielded a protein stability index of 4.26.
Variant LWIHHLLLECYIQYHHSKIRNRGY [L4H] has a protein stability index of 3.85.
Variant LWIFHLLLECYIQYHHSKIRNRGY [L4F] has a protein stability index of 1.69.
With LWILHLLHECYIQYHHSKIRNRGY [L8H] the protein stability index was 3.75.
Work on LWILHLLIECYIQYHHSKIRNRGY [L8I] yielded a protein stability index of 3.28.
LWILHLLYECYIQYHHSKIRNRGY [L8Y] gave a protein stability index of 2.71.
Variant LWILHLLDECYIQYHHSKIRNRGY [L8D] has a protein stability index of 4.78.
LWILHLLKECYIQYHHSKIRNRGY [L8K] showed a protein stability index of 2.54.
With LWILHLLPECYIQYHHSKIRNRGY [L8P] the protein stability index was 2.11.
In the case of LWILHLLFECYIQYHHSKIRNRGY [L8F], the protein stability index is reported as 2.57.
LWILHLLRECYIQYHHSKIRNRGY [L8R] showed a protein stability index of 2.96.
Variant LWILHLLWECYIQYHHSKIRNRGY [L8W] has a protein stability index of 2.98.
LWILHLLSECYIQYHHSKIRNRGY [L8S] gave a protein stability index of 4.08.
LWILHLLMECYIQYHHSKIRNRGY [L8M] gave a protein stability index of 2.01.
With LWILHLLTECYIQYHHSKIRNRGY [L8T] the protein stability index was 2.86.
LWILHLTLECYIQYHHSKIRNRGY [L7T] gave a protein stability index of 3.78.
With LWILHLQLECYIQYHHSKIRNRGY [L7Q] the protein stability index was 2.34.
Variant LWILHLILECYIQYHHSKIRNRGY [L7I] has a protein stability index of 3.46.
LWILHLDLECYIQYHHSKIRNRGY [L7D] gave a protein stability index of 3.52.
Work on LWILHLELECYIQYHHSKIRNRGY [L7E] yielded a protein stability index of 2.73.
Variant LWILHLCLECYIQYHHSKIRNRGY [L7C] has a protein stability index of 2.32.
With LWILHLHLECYIQYHHSKIRNRGY [L7H] the protein stability index was 2.78.
Work on LWILHLMLECYIQYHHSKIRNRGY [L7M] yielded a protein stability index of 2.51.
With LWILHLVLECYIQYHHSKIRNRGY [L7V] the protein stability index was 3.56.
With LWILHLPLECYIQYHHSKIRNRGY [L7P] the protein stability index was 2.33.
For LWILHLALECYIQYHHSKIRNRGY [L7A], the protein stability index was 3.25.
In the case of LWILHLYLECYIQYHHSKIRNRGY [L7Y], the protein stability index is reported as 2.48.
For LWILHLNLECYIQYHHSKIRNRGY [L7N], the protein stability index was 2.
LWILHLRLECYIQYHHSKIRNRGY [L7R] showed a protein stability index of 1.89.
LWILHLFLECYIQYHHSKIRNRGY [L7F] gave a protein stability index of 1.88.
LWILHELLECYIQYHHSKIRNRGY [L6E] showed a protein stability index of 2.09.
Work on LWILHQLLECYIQYHHSKIRNRGY [L6Q] yielded a protein stability index of 1.99.
With LWILHHLLECYIQYHHSKIRNRGY [L6H] the protein stability index was 2.37.
LWILHPLLECYIQYHHSKIRNRGY [L6P] gave a protein stability index of 1.97.
LWILHMLLECYIQYHHSKIRNRGY [L6M] showed a protein stability index of 1.65.
LWILHKLLECYIQYHHSKIRNRGY [L6K] gave a protein stability index of 2.
Variant LWILHILLECYIQYHHSKIRNRGY [L6I] has a protein stability index of 1.65.
For LWILHSLLECYIQYHHSKIRNRGY [L6S], the protein stability index was 1.62.
LWILHDLLECYIQYHHSKIRNRGY [L6D] showed a protein stability index of 1.87.
LWILHRLLECYIQYHHSKIRNRGY [L6R] gave a protein stability index of 1.73.
In the case of LWILHALLECYIQYHHSKIRNRGY [L6A], the protein stability index is reported as 2.43.
In the case of LWILHCLLECYIQYHHSKIRNRGY [L6C], the protein stability index is reported as 1.67.
LWILHTLLECYIQYHHSKIRNRGY [L6T] showed a protein stability index of 2.81.
LWILHYLLECYIQYHHSKIRNRGY [L6Y] showed a protein stability index of 1.8.
In the case of LWILHNLLECYIQYHHSKIRNRGY [L6N], the protein stability index is reported as 1.97.
In the case of LWILHGLLECYIQYHHSKIRNRGY [L6G], the protein stability index is reported as 1.69.
For LWRLHLLLECYIQYHHSKIRNRGY [I3R], the protein stability index was 1.74.
LWSLHLLLECYIQYHHSKIRNRGY [I3S] gave a protein stability index of 2.32.
Work on LWVLHLLLECYIQYHHSKIRNRGY [I3V] yielded a protein stability index of 2.65.
For LWWLHLLLECYIQYHHSKIRNRGY [I3W], the protein stability index was 1.61.
For LWTLHLLLECYIQYHHSKIRNRGY [I3T], the protein stability index was 2.34.
Variant LWYLHLLLECYIQYHHSKIRNRGY [I3Y] has a protein stability index of 1.62.
LWILHLLLEFYIQYHHSKIRNRGY [C10F] gave a protein stability index of 2.53.
LWILHLLLEEYIQYHHSKIRNRGY [C10E] gave a protein stability index of 1.94.
Work on LWILHLLLEAYIQYHHSKIRNRGY [C10A] yielded a protein stability index of 2.09.
Variant LWILHLLLEDYIQYHHSKIRNRGY [C10D] has a protein stability index of 2.63.
Work on LWILHLLLGCYIQYHHSKIRNRGY [E9G] yielded a protein stability index of 2.
In the case of LWILHLLLHCYIQYHHSKIRNRGY [E9H], the protein stability index is reported as 1.47.
Work on LWILHLLLTCYIQYHHSKIRNRGY [E9T] yielded a protein stability index of 1.96.
In the case of LWILHLLLNCYIQYHHSKIRNRGY [E9N], the protein stability index is reported as 1.44.
Work on LWILHLLLVCYIQYHHSKIRNRGY [E9V] yielded a protein stability index of 3.35.
LWILHLLLLCYIQYHHSKIRNRGY [E9L] showed a protein stability index of 1.7.
LWILHLLLRCYIQYHHSKIRNRGY [E9R] showed a protein stability index of 2.99.
For LWILHLLLQCYIQYHHSKIRNRGY [E9Q], the protein stability index was 2.48.
For LWILHLLLKCYIQYHHSKIRNRGY [E9K], the protein stability index was 3.05.
Work on LWILHLLLSCYIQYHHSKIRNRGY [E9S] yielded a protein stability index of 2.28.
With LWILHLLLPCYIQYHHSKIRNRGY [E9P] the protein stability index was 3.73.
For LWILHLLLICYIQYHHSKIRNRGY [E9I], the protein stability index was 2.56.
LWILHLLLCCYIQYHHSKIRNRGY [E9C] showed a protein stability index of 3.27.
For LWILHLLLFCYIQYHHSKIRNRGY [E9F], the protein stability index was 3.6.
Work on LWILHLLLDCYIQYHHSKIRNRGY [E9D] yielded a protein stability index of 1.94.
LWILHLLLWCYIQYHHSKIRNRGY [E9W] gave a protein stability index of 3.27.
In the case of LWILHLLLMCYIQYHHSKIRNRGY [E9M], the protein stability index is reported as 2.33.
